Experimental data as given in US20030059769.

How the values were obtained:
[1] = target: T1, Wheat germ agglutinin (WGA) (Triticum vulgare) (UniProt P10968); assay: filter
T1 sequence: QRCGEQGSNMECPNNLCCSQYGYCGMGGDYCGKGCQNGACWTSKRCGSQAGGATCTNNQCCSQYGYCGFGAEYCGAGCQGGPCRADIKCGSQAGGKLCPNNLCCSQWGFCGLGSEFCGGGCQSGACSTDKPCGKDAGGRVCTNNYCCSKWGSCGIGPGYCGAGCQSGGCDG

[2] = target: T2, L-selectin on PBMC / lymphocytes (Homo sapiens) (UniProt P14151); conditions: 2'-NH2 on all C and U; PBMC binding on ice; competed by DREG-56
T2 sequence: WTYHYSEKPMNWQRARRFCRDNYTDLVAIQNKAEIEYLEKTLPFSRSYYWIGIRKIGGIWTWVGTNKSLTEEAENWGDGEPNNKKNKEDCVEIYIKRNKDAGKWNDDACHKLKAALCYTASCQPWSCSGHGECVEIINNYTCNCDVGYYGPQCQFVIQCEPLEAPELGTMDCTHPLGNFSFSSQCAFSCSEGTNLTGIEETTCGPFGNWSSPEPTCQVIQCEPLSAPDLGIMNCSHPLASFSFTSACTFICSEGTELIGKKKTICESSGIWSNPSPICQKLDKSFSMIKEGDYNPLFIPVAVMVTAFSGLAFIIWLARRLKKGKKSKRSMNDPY

[3] = target: T3, P-selectin (PS-Rg) (Homo sapiens) (UniProt P16109); assay: filter
T3 sequence: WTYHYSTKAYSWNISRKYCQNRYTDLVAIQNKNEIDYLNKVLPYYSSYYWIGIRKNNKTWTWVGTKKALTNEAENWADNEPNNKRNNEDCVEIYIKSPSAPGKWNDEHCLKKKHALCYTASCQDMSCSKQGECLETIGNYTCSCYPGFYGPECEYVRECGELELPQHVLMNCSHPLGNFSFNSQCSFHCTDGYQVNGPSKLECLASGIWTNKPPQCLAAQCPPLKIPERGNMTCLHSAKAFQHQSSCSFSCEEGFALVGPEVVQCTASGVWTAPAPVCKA

[4] = target: T4, L-selectin (LS-Rg) (Homo sapiens) (UniProt P14151); assay: filter
T4 sequence: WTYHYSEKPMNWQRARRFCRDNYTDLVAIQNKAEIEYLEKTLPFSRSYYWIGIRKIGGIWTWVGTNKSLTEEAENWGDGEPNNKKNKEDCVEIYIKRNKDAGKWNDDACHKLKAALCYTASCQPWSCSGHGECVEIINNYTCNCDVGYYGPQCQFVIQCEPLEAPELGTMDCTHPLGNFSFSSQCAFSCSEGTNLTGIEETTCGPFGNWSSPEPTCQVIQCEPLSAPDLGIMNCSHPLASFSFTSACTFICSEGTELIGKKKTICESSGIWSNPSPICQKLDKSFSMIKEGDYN

CD22beta (CD22b-Rg) = CD22beta (CD22b-Rg) (UniProt P20273); assay: filter
[5] = target: T5, E-selectin (ES-Rg) (Homo sapiens) (UniProt P16581); assay: filter
T5 sequence: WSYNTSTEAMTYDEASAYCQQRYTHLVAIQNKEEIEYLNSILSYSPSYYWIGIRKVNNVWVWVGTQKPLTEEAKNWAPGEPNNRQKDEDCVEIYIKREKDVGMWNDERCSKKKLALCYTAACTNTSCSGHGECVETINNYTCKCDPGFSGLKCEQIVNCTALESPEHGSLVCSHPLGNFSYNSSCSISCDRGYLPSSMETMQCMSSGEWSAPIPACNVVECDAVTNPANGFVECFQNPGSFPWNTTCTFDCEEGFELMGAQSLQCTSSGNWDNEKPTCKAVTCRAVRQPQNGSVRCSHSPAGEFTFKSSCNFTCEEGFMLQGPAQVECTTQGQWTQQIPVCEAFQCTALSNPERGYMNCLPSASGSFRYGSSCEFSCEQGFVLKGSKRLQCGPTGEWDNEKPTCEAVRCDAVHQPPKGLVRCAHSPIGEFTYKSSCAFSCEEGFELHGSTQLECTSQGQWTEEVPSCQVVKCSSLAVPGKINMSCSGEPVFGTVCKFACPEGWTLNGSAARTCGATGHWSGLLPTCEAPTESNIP

[6] = target: T4, L-selectin (LS-Rg) (Homo sapiens); assay: inhibition; conditions: 2'-NH2 C and U; sialyl-LewisX competition ELISA
[7] = system: Datura stramonium lectin (Datura stramonium); assay: filter
[8] = target: T6, soluble L-selectin (Homo sapiens) (UniProt P14151); assay: filter; conditions: 2'-F C and U, 37 C
T6 sequence: T4 sequence

[9] = 2'-NH2 on all C and U, 4 C, HSMC
[10] = 2'-NH2 C and U, HBSS, room temperature
[11] = 2'-NH2 C and U, <5% bound at 1 uM

GGGAAAAGCGAAUCAUACACAAGACUGGCAAGRAGUGCGUGAGGGUACGUUAGGGGUGUUUGGGCCGAUCGCAUGCUCCGCCAGAGACCAACCGAGAA [WGA ligand 11.7]
Kd ([1]; 2'-NH2 on all C and U, HBSS, room temperature): 0.016 µM

GGGAGGACGAUGCGGUAACAACAAUCAAGGCGGGUUYACCGCCCCAGUAUGAGUACAGACGACUCGCCCGA [F14.12]
Kd [2]: 0.0013 µM | Kd [3, 9]: 910 nM | Kd ([4]; 2'-NH2 on all C and U, 4 C, HSMC (Ca, Mg), Table 9 prints 5.8 pM (4 C), 1.7 nM room temp): 0.06 nM | Kd (CD22beta (CD22b-Rg); 2'-NH2 on all C and U, <5% bound at 660 nM protein): > 20 µM | Kd [5, 9]: 0.047 µM | IC50 [6]: 0.01 µM

GGGAAAAGCGAAUCAUACACAAGAGUAGGAGGUUCCAUCACCAGGACUCGGCGGGAACGGAAGGUGAUGSGCUCCGCCAGAGACCAACCGAGAA [WGA ligand 11.35]
Kd [1, 10]: 0.09 µM

GGGAGGACGAUGCGGAAGUGAAGCUAAAGSGGAGGGCCACUCAGAAACGCACCACAGACGACUCGCCCGA [F14.13]
Kd ([4]; 2'-NH2 C and U, 4 C, biphasic (0.74), low affinity 270 nM): 1.3 nM

GGGAAAAGCGAAUCAUACACAAGACAGCGGCGGAGUCAGUGAAAGCGUGGGGGGYGCGGGAGGUCUACCCUGACGCUCCGCCAGAGACCAACCGAGAA [WGA ligand 6.14]
Kd ([1]; 2'-NH2 on all C and U, <5% bound at 1 uM WGA, estimate): > 20 µM

GGGAGACAAGAAUAAACNCUCAACGAAAUAGAAGGAACAGAAGAAUGGBGAWGNGGGAAAUGGCAACGAAUUCGACAGGNGGCUCACAACAGGC [PA321]
Kd ([3]; 2'-NH2 C and U, 37 C): 8 nM

GGGAAAAGCGAAUCAUACACAAGAUUGGUCGUACUGGACAGAGCCGUGGUAGAGGGAUUGGGACAAAGUGUCAGCUCCGCCAGAGACCAACCGAGAA [WGA ligand 11.20]
Kd ([7]; 2'-NH2 on all C and U, specificity control): 11.2 µM

GGGAAAAGCGAAUCAUACACAAGAGAGGUGRAUGGGAGAGUGGAGCCCGGGUGACUCGAGGAUUCCCGUGCUCCGCCAGAGACCAACCGAGAA [WGA ligand 11.3]
Kd [1, 10]: 0.41 µM

GGGAGACAAGAAUAAACNCUCAAGCCCCAAGCAAGUGAGCAUCCGCAACAGGGAAGAAGACAGACGAGUGAUUCGACAGGAGGCUCACAACAGGC [PA473]
Kd ([3]; 2'-NH2 C and U, 37 C): 0.36 nM

GGGAGGACGAUGCGGNNNNNNNNNNNNNNNNNNNNNNNNNNNNNNNNNNNNNNNNCAGACGACUCGCCCGA [40N7 random 2'-NH2 RNA]
Kd ([4]; 2'-NH2 on all C and U, random pool, estimate): 10000 nM

GGGAGGACGAUGCGGUCCAGAGCGUGAAGAUCAACGUCCCGGNGUCGAAGACAGACGACUCGCCCGA [F14.70]
Kd ([4]; 2'-NH2 on all C and U, 4 C, biphasic, fraction 0.75, second Kd 254 nM): 2 nM | Kd (CD22beta (CD22b-Rg); 2'-NH2 C and U, <5% bound, 4 C): > 20 µM | Kd ([5]; 2'-NH2 C and U, HSMC, 4 C): 5.9 µM

GGGAGACAAGAAUAAACGCUCAAAAGGUGCCGGGUUGGAGGGGUAGCAAGAAAUGGCUAGGGCGCASGAUUCGACAGGNGGCUCACAACAGGC [PA339]
Kd ([3]; 2'-NH2 C and U, 37 C): 13.5 nM

GGGAAAAGCGAAUCAUACACAAGAAAGGGAUGGGAUUGGGACGAGCGGCCAAGACUCGGCGGGAACGAAGGGUCCGCUCCGCCAGAGACCAACCGAGAA [WGA ligand 6.8]
Kd [7, 11]: > 20 µM

GGGAGGACGAUGCGGGAGGAAUGGACWGCGUAUAUCGAGUUGCCUCAGACGACUCGCCCGA [LF1713]
Kd ([8]; table prints SEQ 338): 0.00022 µM

GGGAGACAAGAAUAAACGCUCAAGUACRCAGUGAGCAGAAGCAGAGAGACUUGGGAUGGGAUGAAAUGGKCUUCGACAGGAGGCUCACAACAGGC [PA467]
Kd ([3]; 2'-NH2 C and U, 37 C): 24 nM

GGGAGGACGAUGCGGUUAGCCUACACUCUAGGUUCAGUUUUCGAAUCUUCCACCGCWGACGACUCGCCCGA [LF1618]
Kd ([4]; 2'-F on all C and U, 37 C): 9.6 nM

GGGAGACAAGAAUAAACGCUCAANNNGAGGAAGGGCACGCAAGGAAACAAAACACAAAGCAGAAGUAGUAAGAUUCGACAGGAGGCUCACAACAGGC [PA465]
Kd ([3]; 2'-NH2 C and U, 37 C): > 50 nM

GGGAGGACGAUGCGGCCGUACAUGGUAARCCUCGAAGGAUUCCCGGGAUGAUCCCCAGACGACUCGCCCGA [F14.27]
Kd ([4]; 2'-NH2 C and U, HSMC, 4 C): 145 nM

GGGAGACAAGAAAUAAACNCUCAAGCCCCAAACGCAAGUGAGCAUCCGCAACAGGGAAGAAGACAGAUGAAUGAUUCGACAGGAGGCUCACAACAGGC [PA466]
Kd ([3]; 2'-NH2 C and U, 37 C): 0.43 nM

CTACCTACGATCTGACTAGCCGAGGTAGTCGTTATAGGGTRCRCACGACACAAARCRGTRGCTTACTCTCATGTAGTTCC [LD127]
Kd ([3]; room temperature): 780 nM | Kd ([4]; room temp, 890 pM at 37 C): 1 nM | Kd (CD22beta (CD22b-Rg); <1% at 700 nM): > 100 µM | Kd ([5]; room temperature): 1.3 µM | Kd ([1]; <3% at […]): > 100 µM

GGGAGACAAGAAUAAACGCUCAAAUCAACUAAACAACGCAGUCACGAGAACGACCGGKCUGACUCCGAAAGUUCGACAGGAGGCUCACAACAGGC [PA448]
Kd ([3]; 2'-NH2 on all C and U, 37 C): 5 nM

GGGAGACAAGAAUAAACGCUCAACGAGUUCACAUGGGAGCAAUCUCCGAAUAAACAACACGCKAKCGCAAAUUCGACAGGAGGCUCACAACAGGC [PF424]
Kd ([3]; 2'-F C and U, HSMC, 37 C): 0.0365 nM

GGGAGGACGAUGCGGACGUGUGUAUCRARUUUUCCGCUGUUUGUGCAGACGACUCGCCCGA [LF1718]
Kd [8]: 0.0064 µM

GGGAGGACGAUGCGGAUAYUCAGCUYGUGUKUUUUCDAUCUUCCCCAGACGACUCGCCCGA [LF1707]
Kd [8]: 0.00016 µM

GGGAAAAGCGAAUCAUACACAAGACGGCUGUGUGGUGUUGGAGCGUCAUAGUAGGAGUCGUCACGAACCAAGGCGCUCCGCCAGAGACCAACCGAGAA [WGA ligand 11.24]
Kd [7, 11]: > 20 µM

CTACCTACGATCTGACTAGCCGAGGATCTGATACTTATTGAACATAMCCGCACNCAGGCTTGCTTACTCTCATGTAGTTCC [LD102]
Kd ([4]; 37 C): 7.9 nM

GGGAAAAGCGAAUCAUACACAAGANNNNNNNNNNNNNNNNNNNNNNNNNNNNNNNNNNNNNNNNNNNNNNNNNNGCUCCGCCAGAGACCAACCGAGAA [50N9 random 2'-NH2 RNA]
Kd ([1]; 2'-NH2 on all C and U, undetectable at 36 uM WGA monomer, p130 prints >4 uM): > 4000 µM

GGGAGGACGAUGCGGAAGUGAAGCUAAAGCGGAGGGCCAUUCAGUUUCNCACCACAGACGACUCGCCCGA [F14.2]
Kd ([3]; 2'-NH2 C and U, HSMC, 4 C): 450 nM | Kd ([4]; 2'-NH2 on all C and U, 4 C, 7.2 nM at room temp): 1.8 nM | Kd (CD22beta (CD22b-Rg); 2'-NH2 C and U, <5% bound, 4 C): > 20 µM | Kd ([5]; 2'-NH2 C and U, HSMC, 4 C): 1.9 µM
